Data as given in PMC9328939, “A Randomized Double‐Blind Placebo‐Controlled First‐In‐Human Phase 1 Trial of TransCon PTH in Healthy Adults” (Journal of Bone and Mineral Research, 2020).

Key:
[1] = system: healthy adults; assay: Safety and tolerability: adverse events in SAD and MAD cohorts; settings: SAD; for Tachycardia/palpitations (%) / Dizziness, light-headedness (including postural/orthostatic dizziness, syncope, presyncope) (%): number of subjects (%); for Any AE (%) / Any SAE (%) / Any drug-related AE (%) / Any moderate or severe AE (%): number of subjects (% of cohort)
Protocol: (§1) Subjects attended a screening visit; those who met eligibility criteria were randomly assigned to a SAD or MAD cohort (n = 10/cohort; eight active and two placebo) and received a single or multiple dose(s) of TransCon PTH, respectively, via a syringe and 31G 8‐mm needle s.c. to the abdomen. […] Multiple TransCon PTH doses administered daily for 10 days ranged from 3.5 to 24 μg PTH(1‐34)/day. Throughout drug administration and for 4 days following the final dose, subjects remained housed for laboratory tests and safety monitoring.
(§2) At screening, demographic information, medical history, and concomitant medications, vital signs with height and weight, hematology, blood chemistry (including sCa, sP, and sMg), intact endogenous PTH(1‐84), 1,25‐dihydroxyvitamin D, and urine samples were collected. In addition, a limited physical examination and electrocardiogram (ECG) were performed.
(§3) Via regular vital sign checks, physical examinations, and safety laboratory tests, subjects were also monitored for adverse events (AEs) throughout the trial, including injection site reactions (erythema, ecchymosis, edema, pruritus, and pain).

[2] = system: healthy adults; assay: Pharmacodynamics: suppression of intact endogenous PTH(1-84); type: in vivo, human
Protocol: (§4) The PD endpoints included albumin‐adjusted sCa, fractional excretion of calcium, sP, renal tubular maximum reabsorption of phosphate/glomerular filtration rate (TMP/GFR), intact endogenous PTH(1‐84), osteoblastic bone formation markers (serum bone‐specific alkaline phosphatase [BSAP] and P1NP), osteoclastic bone resorption markers (urine NTx and serum CTx), sMg, and 1,25‐dihydroxyvitamin D. PK samples were collected predose and at regular intervals postdose through 96 hours for the SAD cohorts and through day14 for the MAD cohorts.

[3] = system: healthy adults; assay: Pharmacodynamics: serum magnesium (sMg); type: in vivo, human; settings: MAD cohorts; data not shown
[4] = system: healthy adults; assay: Pharmacodynamics: serum phosphate (sP); type: in vivo, human; settings: MAD cohorts, near steady-state (days 8 to 10); linear regression on dose, p = .0430
Protocol: All statistical analyses were performed using SAS 9.3 or higher (SAS Institute, Inc., Cary, NC, USA). Summary statistics were reported for continuous data, including mean, standard deviation, standard error, median, minimum, and maximum, whereas number and percentage of subjects within treatment groups were reported for categorical data. For sP and TMP/GFR, a linear regression model was performed for the change from baseline, with dose and baseline as independent variables at near steady‐state. Near steady‐state was defined as the average of predose values on day 8, 9, and 10. Dose was defined as a continuous variable where placebo was considered zero.

[5] = system: healthy adults; assay: Pharmacodynamics: albumin-adjusted serum calcium (sCa); type: in vivo, human
Protocol: as §1, §4
Safety and PD samples were collected and analyzed by a local laboratory (SydPath Clinical Trials, Darlinghurst, Australia).

[6] = system: healthy adults; settings: in vivo
Protocol: as §1, §2, §3

[7] = system: healthy adults; assay: Pharmacodynamics: fractional excretion of calcium (FECa); type: in vivo, human; settings: despite mild hypercalcemia, normal limits approximately 0.4% to 2%
Protocol: Twice‐daily 12‐hour urine samples (including calcium, phosphorus, magnesium, and creatinine) were also collected. In MAD cohorts, serum samples collected from TransCon PTH‐treated and placebo‐treated subjects predose and postdose on day 14 were analyzed for anti‐PTH binding antibodies by BioAgilytix (Durham, NC, USA) using an electrochemiluminescence bridging assay. Samples were analyzed using a multitiered approach consisting of a screening assay and a confirmatory assay.

[8] = Pharmacokinetics of Free PTH after a single s.c. dose of TransCon PTH (SAD cohorts); type: in vivo, human; settings: for Free PTH tmax: median (min-max); for Free PTH Cmax / Free PTH t½ / Free PTH AUC0-t: geometric mean (CV%)
Protocol: Subjects attended a screening visit; those who met eligibility criteria were randomly assigned to a SAD or MAD cohort (n = 10/cohort; eight active and two placebo) and received a single or multiple dose(s) of TransCon PTH, respectively, via a syringe and 31G 8‐mm needle s.c. to the abdomen. Single TransCon PTH doses ranged from 3.5 to 124 μg PTH(1‐34) (containing PTH(1‐34) [Bachem AG, Bubendorf, Switzerland], identical to the first 34 amino acids of rhPTH). Multiple TransCon PTH doses administered daily for 10 days ranged from 3.5 to 24 μg PTH(1‐34)/day.
The primary PK endpoints therefore included Free PTH (defined as the sum of Free PTH(1‐34) and Free PTH(1‐33)) as well as TransCon PTH.
The PK samples were analyzed by PRA Health Sciences (Assens, the Netherlands); Free PTH was quantified using protein precipitation, liquid‐liquid extraction, and solid‐phase extraction followed by ultra high‐performance liquid chromatography with tandem mass spectrometry detection measuring the two peptides, PTH(1‐34) and PTH(1‐33), by collection of both transitions simultaneously. Free PTH was calculated only if samples contained quantifiable levels of both Free PTH(1‐34) and Free PTH(1‐33); ie, above 1.40 and 0.958 pg/mL for Free PTH(1‐34) and Free PTH(1‐33), respectively. No lower limit of quantification was calculated for Free PTH because the ratio between Free PTH(1‐34) and Free PTH(1‐33) is not constant.
The PK parameters were calculated using Phoenix WinNonlin, version 6.4 (Certara USA, Inc., Princeton, NJ, USA). For Free PTH, tmax was defined as the time to maximum observed concentration and Cmax was defined as the maximum observed concentration. […] Peak‐to‐trough was calculated as the ratio of Cmax to C24h at steady‐state.

[9] = single s.c. 3.5 μg, n = 8, vasodilatory AEs at least possibly related to study drug
[10] = single s.c. 12 μg, n = 8, at least possibly related
[11] = single s.c. 32 μg, n = 8, at least possibly related
[12] = single s.c. 48 μg, n = 8, at least possibly related
[13] = single s.c. 72 μg, n = 8, at least possibly related
[14] = single s.c. 100 μg, n = 8, at least possibly related
[15] = single s.c. 124 μg, n = 8, at least possibly related
[16] = MAD cohorts, daily doses x 10 days
[17] = single s.c. 72 μg PTH(1-34), n = 7
[18] = single s.c. 100 μg PTH(1-34), n = 8
[19] = single s.c. 124 μg PTH(1-34), n = 8

TransCon PTH: long-acting, essentially inactive prodrug: PTH(1-34) transiently bound to an inert 40 kDa mPEG carrier via a proprietary autocleaving linker
Tachycardia/palpitations (%) ([1]; Total of all TransCon PTH doses, n = 56, at least possibly related): 0 (0.0) % | Any AE (%) ([1]; single s.c. 3.5 μg, n = 8): 1 (12.5) % | Any SAE (%) ([1]; single s.c. 3.5 μg, n = 8): 0 (0) % | Any drug-related AE (%) ([1]; single s.c. 3.5 μg, n = 8): 1 (12.5) % | Any moderate or severe AE (%) ([1]; single s.c. 3.5 μg, n = 8): 0 (0) % | Dizziness, light-headedness (including postural/orthostatic dizziness, syncope, presyncope) (%) [1, 9]: 0 (0.0) % | Tachycardia/palpitations (%) [1, 9]: 0 (0.0) % | Dizziness, light-headedness (including postural/orthostatic dizziness, syncope, presyncope) (%) [1, 10]: 0 (0.0) % | Tachycardia/palpitations (%) [1, 10]: 0 (0.0) % | Any AE (%) ([1]; single s.c. 12 μg, n = 8): 3 (37.5) % | Any SAE (%) ([1]; single s.c. 12 μg, n = 8): 1 (12.5) % | Any drug-related AE (%) ([1]; single s.c. 12 μg, n = 8): 1 (12.5) % | Any moderate or severe AE (%) ([1]; single s.c. 12 μg, n = 8): 1 (12.5) % | Dizziness, light-headedness (including postural/orthostatic dizziness, syncope, presyncope) (%) [1, 11]: 1 (12.5) % | Tachycardia/palpitations (%) [1, 11]: 0 (0.0) % | Any AE (%) ([1]; single s.c. 32 μg, n = 8): 3 (37.5) % | Any SAE (%) ([1]; single s.c. 32 μg, n = 8): 0 (0) % | Any drug-related AE (%) ([1]; single s.c. 32 μg, n = 8): 2 (25.0) % | Any moderate or severe AE (%) ([1]; single s.c. 32 μg, n = 8): 0 (0) % | Dizziness, light-headedness (including postural/orthostatic dizziness, syncope, presyncope) (%) [1, 12]: 0 (0.0) % | Tachycardia/palpitations (%) [1, 12]: 0 (0.0) % | Any AE (%) ([1]; single s.c. 48 μg, n = 8): 6 (75.0) % | Any SAE (%) ([1]; single s.c. 48 μg, n = 8): 0 (0) % | Any drug-related AE (%) ([1]; single s.c. 48 μg, n = 8): 5 (62.5) % | Any moderate or severe AE (%) ([1]; single s.c. 48 μg, n = 8): 2 (25.0) % | Dizziness, light-headedness (including postural/orthostatic dizziness, syncope, presyncope) (%) [1, 13]: 0 (0.0) % | Tachycardia/palpitations (%) [1, 13]: 0 (0.0) % | Any AE (%) ([1]; single s.c. 72 μg, n = 8): 2 (25.0) % | Any SAE (%) ([1]; single s.c. 72 μg, n = 8): 0 (0) % | Any drug-related AE (%) ([1]; single s.c. 72 μg, n = 8): 0 (0.0) % | Any moderate or severe AE (%) ([1]; single s.c. 72 μg, n = 8): 1 (12.5) % | Dizziness, light-headedness (including postural/orthostatic dizziness, syncope, presyncope) (%) [1, 14]: 2 (25.0) % | Tachycardia/palpitations (%) [1, 14]: 0 (0.0) % | Any AE (%) ([1]; single s.c. 100 μg, n = 8): 4 (50.0) % | Any SAE (%) ([1]; single s.c. 100 μg, n = 8): 0 (0) % | Any drug-related AE (%) ([1]; single s.c. 100 μg, n = 8): 3 (37.5) % | Any moderate or severe AE (%) ([1]; single s.c. 100 μg, n = 8): 1 (12.5) % | Dizziness, light-headedness (including postural/orthostatic dizziness, syncope, presyncope) (%) [1, 15]: 1 (12.5) % | Tachycardia/palpitations (%) [1, 15]: 0 (0.0) % | Any AE (%) ([1]; single s.c. 124 μg, n = 8): 4 (50.0) % | Any SAE (%) ([1]; single s.c. 124 μg, n = 8): 0 (0) % | Any drug-related AE (%) ([1]; single s.c. 124 μg, n = 8): 2 (25.0) % | Any moderate or severe AE (%) ([1]; single s.c. 124 μg, n = 8): 1 (12.5) % | intact endogenous PTH(1-84) [2, 16]: dose‐dependent suppression | intact endogenous PTH(1-84) ([2]; SAD cohorts, data not shown): dose‐dependent suppression | change in serum magnesium (sMg) [3]: nonsignificant increase | change in serum phosphate (sP) from baseline [4]: significant dose‐dependent decrease | albumin-adjusted sCa on day 11 ([5]; MAD, 24 μg PTH(1-34)/day x 10 days, n = 8, mean (± SD as printed), baseline 9.60 ± 0.06): 10.63 ± 0.22 mg/dL | albumin-adjusted sCa on day 2 ([5]; SAD, single s.c. 124 μg PTH(1-34), n = 8, mean ± SD as printed, baseline 9.43 ± 0.09): 10.97 ± 0.20 mg/dL | treatment-emergent AE: upper respiratory tract infections [6]: 6% | FECa (spot) [7, 16]: remained essentially within normal limits | FECa ([7]; SAD cohorts, data not shown): remained essentially within normal limits | Free PTH tmax ([8]; single s.c. 48 μg PTH(1-34), healthy adults, n = 7): 8.0 (4.0–24.0) (n = 7) h | Free PTH Cmax ([8]; single s.c. 48 μg PTH(1-34), healthy adults, plasma, UHPLC-MS/MS, n = 7): 6.61 (19.7) (n = 7) pg/mL | Free PTH t½ ([8]; single s.c. 72 μg PTH(1-34), n = 5): 54.4 (18.9) (n = 5) h | Free PTH Cmax [8, 17]: 7.67 (28.5) (n = 7) pg/mL | Free PTH AUC0-t ([8]; single s.c. 72 μg PTH(1-34), healthy adults, plasma, UHPLC-MS/MS, n = 5): 420 (20.3) (n = 5) h*pg/mL | Free PTH tmax [8, 17]: 4.0 (4.0–60.3) (n = 7) h | Free PTH t½ ([8]; single s.c. 100 μg PTH(1-34), n = 7): 51.0 (32.4) (n = 7) h | Free PTH AUC0-t [8, 18]: 594 (17.3) (n = 8) h*pg/mL | Free PTH Cmax [8, 18]: 12.9 (11.7) (n = 8) pg/mL | Free PTH tmax [8, 18]: 6.0 (4.0–8.0) (n = 8) h | Free PTH t½ ([8]; single s.c. 124 μg PTH(1-34), n = 7): 55.7 (37.1) (n = 7) h | Free PTH AUC0-t [8, 19]: 684 (36.9) (n = 8) h*pg/mL | Free PTH Cmax [8, 19]: 13.8 (45.5) (n = 8) pg/mL | Free PTH tmax [8, 19]: 4.0 (4.0–60.0) (n = 8) h
